The source of these data is patent publication US20210309707A1 (Stanford University, published 2021).

The assay deals with T1, interferon-gamma receptor subunit 2 (IFN-γR2) (UniProt P38484 28-247, limits assumed).
T1 construct: Soluble purified protein (crystallised; analyte in SPR)
T1 sequence (looked up): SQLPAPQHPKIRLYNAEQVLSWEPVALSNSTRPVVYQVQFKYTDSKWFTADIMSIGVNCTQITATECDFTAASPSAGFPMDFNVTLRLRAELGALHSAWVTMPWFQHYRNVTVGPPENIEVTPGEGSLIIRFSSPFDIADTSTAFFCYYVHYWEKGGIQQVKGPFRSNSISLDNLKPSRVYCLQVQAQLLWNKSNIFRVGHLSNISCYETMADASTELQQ
In words: SPR (Biacore T100, equilibrium); IFN-γR2 dilutions over captured IFN-γR1 in the presence of 50 nM mutant IFN-γ. The protocol: The structure of the IFN-γ signaling complex as described in Example 2 above provided opportunities to address new questions to further understand IFN-γ signaling and activity. By identifying the shared interactions, previously unknown, at sites IIa/IIb, one now can better understand IFN-γ signaling at each step of complex formation. Since IFN-γ is a dimeric cytokine driving the dimerization of four receptors, further experiments were performed to design and generate variants of IFN-γ to affect one or more of the different signaling intermediates. The design of the partial agonists was achieved by first engineering a version of IFN-γ that abolished binding to IFN-γR2 receptor. Based on the structure described in Example 2, a triple IFN-γ mutant having three amino acid substitutions K74A, E75Y, and N83R (See FIG. 3A) was designed and validated for the loss of measurable binding to IFN-γR2 as determined by surface plasmon resonance (FIGS. 3B-3D). Without being bound to any particular theory, several other mutations or combinations thereof of the IFN-γR2 binding site amino acids of IFN-γ as indicated in the crystal structure (FIG. 2), either alone or in combination with mutations within the IFN-γR1 binding site, could also result in similar effects on IFN-γR2 binding. […]
For orientation: SPR reads the build-up and loss of mass on a sensor chip optically.

B1: triple IFN-γ mutant having three amino acid substitutions K74A, E75Y, and N83R (ligand)
chain: QDPYVKEAENLKKYFNAGHSDVADNGTLFLGILKNWKEESDRKIMQSQIVSFYFKLFKNFKDDQSIQKSVETIAYDMNVKFFRSNKKKRDDFEKLTNYSVTDLNVQRKAIHELIQVMAELSPAAKTGKRKRSQ
notes: also called IFN-γ (K74A/E75Y/N75R); IFN-γK74A/E75Y/N83A
On to B1, for which the binding result is “no binding”.
